± gives the standard deviation of the averaged measurements.
Experiment: total protein half-life in vivo (active degradation + dilution); higher = more stable protein
[1] = E. coli NCM3722 delta-clpP delta-lon delta-hslV, growth: N-lim chemostat, doubling time 6 h
[2] = E. coli NCM3722 delta-clpP, growth: N-lim chemostat, doubling time 6 h
[3] = E. coli NCM3722 delta-hslV, growth: N-lim chemostat, doubling time 6 h
[4] = E. coli NCM3722 delta-lon, growth: N-lim chemostat, doubling time 6 h
[5] = E. coli NCM3722 delta-smpB, growth: N-lim chemostat, doubling time 6 h
[6] = wild type E. coli NCM3722, growth: C-lim chemostat, doubling time 3 h
[7] = wild type E. coli NCM3722, growth: C-lim chemostat, doubling time 6 h
[8] = wild type E. coli NCM3722, growth: C-lim chemostat, doubling time 12 h
[9] = wild type E. coli NCM3722, growth: N-lim chemostat, doubling time 6 h
[10] = wild type E. coli NCM3722, growth: N-lim chemostat, doubling time 12 h
[11] = wild type E. coli NCM3722, growth: P-lim chemostat, doubling time 6 h
[12] = wild type E. coli NCM3722, growth: P-lim chemostat, doubling time 12 h

Sequence	total protein half-life in vivo [1]	total protein half-life in vivo [2]	total protein half-life in vivo [3]	total protein half-life in vivo [4]	total protein half-life in vivo [5]	total protein half-life in vivo [6]	total protein half-life in vivo [7]	total protein half-life in vivo [8]	total protein half-life in vivo [9]	total protein half-life in vivo [10]	total protein half-life in vivo [11]	total protein half-life in vivo [12]
MNMKLKTLFAAAFAVVGFCSTASAVTYPLPTDGSRLVGQNQVITIPEGNTQPLEYFAAEYQMGLSNMMEANPGVDTFLPKGGTVLNIPQQLILPDTVHEGIVINSAEMRLYYYPKGTNTVIVLPIGIGQLGKDTPINWTTKVERKKAGPTWTPTAKMHAEYRAAGEPLPAVVPAGPDNPMGLYALYIGRLYAIHGTNANFGIGLRVSHGCVRLRNEDIKFLFEKVPVGTRVQFIDEPVKATTEPDGSRYIEVHNPLSTTEAQFEGQEIVPITLTKSVQTVTGQPDVDQVVLDEAIKNRSGMPVRLN [P0AAX8]	6.81 ± 1.6 h	5.74 ± 0.27 h	6.22 ± 0.09 h	6.15 ± 0.32 h	6.37 ± 0.75 h	2.9 ± 0.083 h	5.76 ± 0.11 h	11.6 ± 0.4 h	5.98 ± 0.64 h	13.7 ± 1.3 h	5.606 ± 0.037 h	12.3 ± 0.94 h
MNMKTIEDVFIHLLSDTYSAEKQLTRALAKLARATSNEKLSQAFHAHLEETHGQIERIDQVVESESNLKIKRMKCVAMEGLIEEANEVIESTEKNEVRDAALIAAAQKVEHYEIASYGTLATLAEQLGYRKAAKLLKETLEEEKATDIKLTDLAINNVNKKAENKA	5.25 ± 0.25 h	–	5.18 ± 0.69 h	6.51 ± 0.95 h	4.94 ± 0.081 h	3.02 ± 0.13 h	5.04 ± 0.77 h	10.5 ± 1.4 h	4.881 ± 0.03 h	7.99 ± 0.53 h	5.294 ± 0.042 h	10.3 ± 0.62 h
MNMMRIFYIGLSGVGMMFSSMASGNDAGGLQSPACGVVCDPYICVNSDGISPELTRKYLGEKAAENLQSLQGYDPSEFTFANGVFCDVKEKLCRDDRYFGVDGKRSGKINQTTTKMLFMCRE	5.09 ± 1.6 h	5.4 h	6.01 ± 0.28 h	5.64 h	–	2.85 ± 0.51 h	5.52 ± 0.4 h	–	4.42 ± 1.2 h	> 16 h	4.78 ± 0.93 h	–
MNNFNLHTPTRILFGKGAIAGLREQIPHDARVLITYGGGSVKKTGVLDQVLDALKGMDVLEFGGIEPNPAYETLMNAVKLVREQKVTFLLAVGGGSVLDGTKFIAAAANYPENIDPWHILQTGGKEIKSAIPMGCVLTLPATGSESNAGAVISRKTTGDKQAFHSAHVQPVFAVLDPVYTYTLPPRQVANGVVDAFVHTVEQYVTKPVDAKIQDRFAEGILLTLIEDGPKALKEPENYDVRANVMWAATQALNGLIGAGVPQDWATHMLGHELTAMHGLDHAQTLAIVLPALWNEKRDTKRAKLLQYAERVWNITEGSDDERIDAAIAATRNFFEQLGVPTHLSDYGLDGSSIPALLKKLEEHGMTQLGENHDITLDVSRRIYEAAR	–	5.02 ± 0.23 h	4.48 ± 0.25 h	4.949 ± 0.041 h	4.48 ± 0.23 h	3.27 ± 0.089 h	6.48 ± 1 h	11.6 ± 0.92 h	5.22 ± 0.38 h	7.834 ± 0.065 h	5.35 ± 0.47 h	10.2 ± 0.89 h
MNNHFGKGLMAGLKATHADSAVNVTKFCADYKRGFVLGYSHRMYEKTGDRQLSAWEAGILTRRYGLDKEMVMDFFRENNSCSTLRFFMAGYRLEN	4.99 ± 0.16 h	–	–	–	–	–	–	–	–	–	–	–
MNNHFKCIGIVGHPRHPTALTTHEMLYRWLCTKGYEVIVEQQIAHELQLKNVKTGTLAEIGQLADLAVVVGGDGNMLGAARTLARYDIKVIGINRGNLGFLTDLDPDNAQQQLADVLEGHYISEKRFLLEAQVCQQDCQKRISTAINEVVLHPGKVAHMIEFEVYIDEIFAFSQRSDGLIISTPTGSTAYSLSAGGPILTPSLDAITLVPMFPHTLSARPLVINSSSTIRLRFSHRRNDLEISCDSQIALPIQEGEDVLIRRCDYHLNLIHPKDYSYFNTLSTKLGWSKKLF [P0A7B3]	–	4.25 ± 0.11 h	5.35 ± 1.2 h	6.6 ± 1.1 h	4.75 ± 0.69 h	3.19 ± 0.49 h	5.33 ± 0.2 h	12.1 h	4.4 ± 0.37 h	7.59 h	5.9 ± 0.21 h	11.1 ± 0.2 h
MNNMNVIIADDHPIVLFGIRKSLEQIEWVNVVGEFEDSTALINNLPKLDAHVLITDLSMPGDKYGDGITLIKYIKRHFPSLSIIVLTMNNNPAILSAVLDLDIEGIVLKQGAPTDLPKALAALQKGKKFTPESVSRLLEKISAGGYGDKRLSPKESEVLRLFAEGFLVTEIAKKLNRSIKTISSQKKSAMMKLGVENDIALLNYLSSVTLSPADKD [P0DMC7]	5.91 ± 1.9 h	4.22 ± 1.2 h	2.69 ± 0.2 h	3.758 ± 0.014 h	2.9 ± 0.3 h	2.71 ± 0.096 h	4.35 ± 0.097 h	6.66 ± 1.3 h	3.01 ± 0.38 h	4.16 ± 0.46 h	3.42 ± 0.59 h	5.56 ± 0.093 h
MNNNDLFQASRRRFLAQLGGLTVAGMLGPSLLTPRRATAAQAATDAVISKEGILTGSHWGAIRATVKDGRFVAAKPFELDKYPSKMIAGLPDHVHNAARIRYPMVRVDWLRKRHLSDTSQRGDNRFVRVSWDEALDMFYEELERVQKTHGPSALLTASGWQSTGMFHNASGMLAKAIALHGNSVGTGGDYSTGAAQVILPRVVGSMEVYEQQTSWPLVLQNSKTIVLWGSDLLKNQQANWWCPDHDVYEYYAQLKAKVAAGEIEVISIDPVVTSTHEYLGREHVKHIAVNPQTDVPLQLALAHTLYSENLYDKNFLANYCVGFEQFLPYLLGEKDGQPKDAAWAEKLTGIDAETIRGLARQMAANRTQIIAGWCVQRMQHGEQWAWMIVVLAAMLGQIGLPGGGFGFGWHYNGAGTPGRKGVILSGFSGSTSIPPVHDNSDYKGYSSTIPIARFIDAILEPGKVINWNGKSVKLPPLKMCIFAGTNPFHRHQQINRIIEGLRKLETVIAIDNQWTSTCRFADIVLPATTQFERNDLDQYGNHSNRGIIAMKQVVPPQFEARNDFDIFRELCRRFNREEAFTEGLDEMGWLKRIWQEGVQQGKGRGVHLPAFDDFWNNKEYVEFDHPQMFVRHQAFREDPDLEPLGTPSGLIEIYSKTIADMNYDDCQGHPMWFEKIERSHGGPGSQKYPLHLQSVHPDFRLHSQLCESETLRQQYTVAGKEPVFINPQDASARGIRNGDVVRVFNARGQVLAGAVVSDRYAPGVARIHEGAWYDPDKGGEPGALCKYGNPNVLTIDIGTSQLAQATSAHTTLVEIEKYNGTVEQVTAFNGPVEMVAQCEYVPASQVKS	–	–	–	7.84 h	5.54 h	3.3 ± 0.074 h	4.64 ± 2.7 h	13.2 ± 1.9 h	7.02 ± 0.15 h	14 ± 1.4 h	6.85 ± 0.67 h	12.6 ± 0.63 h
MNNNDLVAKLWKLCDNLRDGGVSYQNYVNELASLLFLKMCKETGQEAEYLPEGYRWDDLKSRIGQEQLQFYRKMLVHLGEDDKKLVQAVFHNVSTTITEPKQITALVSNMDSLDWYNGAHGKSRDDFGDMYEGLLQKNANETKSGAGQYFTPRPLIKTIIHLLKPQPREVVQDPAAGTAGFLIEADRYVKSQTNDLDDLDGDTQDFQIHRAFIGLELVPGTRRLALMNCLLHDIEGNLDHGGAIRLGNTLGSDGENLPKAHIVATNPPFGSAAGTNITRTFVHPTSNKQLCFMQHIIETLHPGGRAAVVVPDNVLFEGGKGTDIRRDLMDKCHLHTILRLPTGIFYAQGVKTNVLFFTKGTVANPNQDKNCTDDVWVYDLRTNMPSFGKRTPFTDEHLQPFERVYGEDPHGLSPRTEGEWSFNAEETEVADSEENKNTDQHLATSRWRKFSREWIRTAKSDSLDISWLKDKDSIDADSLPEPDVLAAEAMGELVQALSELDALMRELGASDEADLQRQLLEEAFGGVKE	5.68 ± 0.29 h	4.9709 ± 0.0002 h	4.85 ± 0.48 h	4.72 ± 0.37 h	4.17 ± 0.28 h	2.586 ± 0.0099 h	5.252 ± 0.027 h	9.58 ± 1 h	4.476 ± 0.014 h	7.36 ± 0.36 h	5.18 ± 0.24 h	10.5 ± 0.66 h
MNNRVHQGHLARKRFGQNFLNDQFVIDSIVSAINPQKGQAMVEIGPGLAALTEPVGERLDQLTVIELDRDLAARLQTHPFLGPKLTIYQQDAMTFNFGELAEKMGQPLRVFGNLPYNISTPLMFHLFSYTDAIADMHFMLQKEVVNRLVAGPNSKAYGRLSVMAQYYCNVIPVLEVPPSAFTPPPKVDSAVVRLVPHATMPHPVKDVRVLSRITTEAFNQRRKTIRNSLGNLFSVEVLTGMGIDPAMRAENISVAQYCQMANYLAENAPLQES	5.45 ± 0.071 h	5.39 ± 0.83 h	5.18 ± 0.36 h	5.84 ± 0.95 h	5.39 ± 0.63 h	2.972 ± 0.017 h	5.41 ± 0.75 h	12.5 ± 1.5 h	5.24 ± 0.29 h	9.91 ± 1.2 h	5.56 ± 0.3 h	10.6 ± 0.28 h
MNNSAFTFQTLHPDTIMDALFEHGIRVDSGLTPLNSYENRVYQFQDEDRRRFVVKFYRPERWTADQILEEHQFALQLVNDEVPVAAPVAFNGQTLLNHQGFYFAVFPSVGGRQFEADNIDQMEAVGRYLGRMHQTGRKQLFIHRPTIGLNEYLIEPRKLFEDATLIPSGLKAAFLKATDELIAAVTAHWREDFTVLRLHGDCHAGNILWRDGPMFVDLDDARNGPAVQDLWMLLNGDKAEQRMQLETIIEAYEEFSEFDTAEIGLIEPLRAMRLVYYLAWLMRRWADPAFPKNFPWLTGEDYWLRQTATFIEQAKVLQEPPLQLTPMY [P0C0K3]	3.88 ± 0.5 h	5.41 ± 1.8 h	4.37 ± 0.62 h	4.43 ± 0.29 h	4.22 ± 0.26 h	2.99 ± 0.046 h	5.38 ± 0.61 h	10.3 ± 1.3 h	4.23 ± 0.21 h	6.67 ± 0.66 h	6.02 ± 0.38 h	10.3 ± 0.64 h
MNNSRLFRLSRIVIALTAASGMMVNTANAKEEAKAATQYTQQVNQNYAKSLPFSDRQDFDDAQRGFIAPLLDEGILRDANGKVYYRADDYKFDINAAAPETVNPSLWRQSQINGISGLFKVTDKMYQVRGQDISNITFVEGEKGIIVIDPLVTPPAAKAALDLYFQHRPQKPIVAVIYTHSHTDHYGGVKGIISEADVKSGKVQVIAPAGFMDEAISENVLAGNIMSRRALYSYGLLLPHNAQGNVGNGLGVTLATGDPSIIAPTKTIVRTGEKMIIDGLEFDFLMTPGSEAPAEMHFYIPALKALCTAENATHTLHNFYTLRGAKTRDTSKWTEYLNETLDMWGNDAEVLFMPHTWPVWGNKHINDYIGKYRDTIKYIHDQTLHLANQGYTMNEIGDMIKLPPALANNWASRGYYGSVSHNARAVYNFYLGYYDGNPANLHPYGQVEMGKRYVQALGGSARVINLAQEANKQGDYRWSAELLKQVIAANPGDQVAKNLQANNFEQLGYQAESATWRGFYLTGAKELREGVHKFSHGTTGSPDTIRGMSVEMLFDFMAVRLDSAKAAGKNISLNFNMSNGDNLNLTLNDSVLNYRKTLQPQADASFYISREDLHAVLTGQAKMADLVKAKKAKIIGNGAKLEEIIACLDNFDLWVNIVTPN	–	–	–	–	–	–	–	11.5 h	–	11.3 h	–	–
MNNTPRYPQRVRNDLRFRELTVLRVERISAGFQRIVLGGEALDGFTSRGFDDHSKLFFPQPDAHFVPPTVTEEGIVWPEGPRPPSRDYTPLYDELRHELAIDFFIHDGGVASGWAMQAQPGDKLTVAGPRGSLVVPEDYAYQLYVCDESGMPALRRRLETLSKLAVKPQVSALVSVRDNACQDYLAHLDGFNIEWLAHDEQAVDARLAQMQIPADDYFIWITGEGKVVKNLSRRFEAEQYDPQRVRAAAYWHAK	4.98 ± 0.54 h	3.77 ± 0.45 h	4.7 ± 0.13 h	5.34 ± 0.58 h	4.11 ± 1.2 h	3.36 ± 0.12 h	6.21 ± 1.1 h	9.46 ± 0.69 h	4.38 ± 0.69 h	7.07 h	5.663 ± 0.053 h	12.1 ± 0.45 h
